Starred links: 1 amine or outer side, 2 acyl side, 3 side chain; linkers in the order of their positions; H or OH if unused. Non-standard residues stand in square brackets, D forms with d. *: point of attachment. des‑NH2‑α‑pyrrolidine‑1‑yl = Dmt (2',6'-dimethyl-L-tyrosine) with the α-amine replaced by pyrrolidine-1-yl, Cc1cc(O)cc(C)c1C[C@@H](C(=O)*)N1CCCC1; des‑NH2‑α‑piperidine‑1‑yl = Dmt (2',6'-dimethyl-L-tyrosine) with the α-amine replaced by piperidine-1-yl, Cc1cc(O)cc(C)c1C[C@@H](C(=O)*)N1CCCCC1; βTic = 1,2,3,4-tetrahydroisoquinoline-3-yl acetic acid, O=C(C[C@@H]1Cc2ccccc2CN1[*:1])[*:2]; des‑NH2‑α‑pyrrole‑1‑yl = replacement of the α-amino group by a pyrrol-1-yl group; NH(1-Adamantyl) = C1C2CC3CC1CC(N*)(C2)C3; Dmt = Cc1cc(O)cc(C)c1C[C@H](N)C(=O)O; NH‑tetrazole‑5‑yl = n1nc(N*)n[nH]1; Tic = O=C(O)[C@@H]1Cc2ccccc2CN1; dTic = O=C(O)[C@H]1Cc2ccccc2CN1; NHtBu = CC(C)(C)N*
The binders below were run against T1, µ-opioid receptor of the guinea pig ileum (GPI) (guinea pig) (assay: cell-based or functional assay).

Binder | GPI ED50 [µM] | GPI Ke [µM] | GPI pA2
H-[Dmt]-[Tic]-Ala-NHMe (SMILES CNC(=O)[C@H](C)NC(=O)[C@@H]1Cc2ccccc2CN1C(=O)[C@@H](N)Cc1c(C)cc(O)cc1C) [H-Dmt-Tic-Ala-NHMe] | 0.29 | – | –
H-[Dmt]-[Tic]-Ala-NHtBu (SMILES Cc1cc(O)cc(C)c1C[C@H](N)C(=O)N1Cc2ccccc2C[C@H]1C(=O)N[C@@H](C)C(=O)NC(C)(C)C) [H-Dmt-Tic-Ala-NH-tBu] | > 10 | 0.17 | 6.76
H-[Dmt]-[Tic]-Ala-{NH(1-Adamantyl)} [H-Dmt-Tic-Ala-NH-1-adamantane] | 1 | – | –
H-[Dmt]-[Tic]-OH (also: (R,S)-Dmt, racemic, mixture of diastereomers) [H-(R,S)Dmt-Tic-OH] | > 10 | – | –
H-[Dmt]-[βTic]-OH [H-Dmt-βTic-OH] | > 10 | – | –
{des‑NH2‑α‑piperidine‑1‑yl}-[Dmt]-[Tic]-OH [[des-NH2-α-piperidine-1-yl]-Dmt-Tic-OH] | > 10 | – | –
{des‑NH2‑α‑pyrrolidine‑1‑yl}-[Dmt]-[Tic]-OH [[des-NH2-α-pyrrolidine-1-yl]-Dmt-Tic-OH] | > 10 | – | –
{des‑NH2‑α‑pyrrole‑1‑yl}-[Dmt]-[Tic]-OH [[des-NH2-α-pyrrole-1-yl]-Dmt-Tic-OH] | > 10 | – | –
H-[Dmt]-[Tic]-NHMe [H-Dmt-Tic-NHMe] | > 10 | 1.15 | 5.94
H-[Dmt]-[Tic]-NHtBu (SMILES Cc1cc(O)cc(C)c1C[C@H](N)C(=O)N1Cc2ccccc2C[C@H]1C(=O)NC(C)(C)C) [H-Dmt-Tic-NH-tBu] | 1.04 | – | –
H-[Dmt]-[Tic]-{NH‑tetrazole‑5‑yl} [H-Dmt-Tic-NH-tetrazole-5-yl] | 8.2 | – | –
H-[Dmt]-[Tic]-{NH(1-Adamantyl)} (SMILES Cc1cc(O)cc(C)c1C[C@H](N)C(=O)N1Cc2ccccc2C[C@H]1C(=O)NC12CC3CC(CC(C3)C1)C2) [H-Dmt-Tic-NH-1-adamantane] | 0.036 | – | –
H-[Dmt]-[dTic]-{NH(1-Adamantyl)} [H-Dmt-D-Tic-NH-1-adamantane] | 1.68 | – | –
{N,N‑dimethyl}-[Dmt]-[Tic]-NHMe [N,N(Me)2-Dmt-Tic-NHMe] | > 10 | 0.39 | 6.41
{N,N‑dimethyl}-[Dmt]-[Tic]-NHtBu [N,N(Me)2-Dmt-Tic-NH-tBu] | > 10 | 0.3 | –
H-[Dmt]-[Tic]-Ala-NH2 [H-Dmt-Tic-Ala-NH2] | 4.74 | – | –
{N,N‑dimethyl}-[Dmt]-[Tic]-{NH(1-Adamantyl)} [N,N(Me)2-Dmt-Tic-NH-1-adamantane] | 0.016 | – | –
{N,N‑dimethyl}-[Dmt]-[dTic]-{NH(1-Adamantyl)} [N,N(Me)2-Dmt-D-Tic-NH-1-adamantane] | 4.48 | – | –

Target: T1, µ-opioid receptor of the guinea pig …
Assay: cell-based or functional assay
Remark: another data set of the same source

Binder | IC50 (µ agonist activity, GPI) [µM]
H-Y[dA]FGYPS-NH2 [dermorphin: H-Tyr-D-Ala-Phe-Gly-Tyr-Pro-Ser-NH2] | 0.00182
